Patent publication US20220135638A1 (Takeda / Millennium, published 2022)
Numbered stars: 1 amine (or outer) side, 2 acyl side, 3 side chain; on linkers, the order of the positions; unused ones are H or OH. Square brackets hold non-standard residues; d marks the D form. Primed or numbered codes have the meaning given here. Side chains are listed from the residue outwards. Ends that are not written are not given here. * marks the point of attachment. C20 diacid = O=C(O)CCCCCCCCCCCCCCCCCCC(=O)*; C18 diacid = O=C(O)CCCCCCCCCCCCCCCCC(=O)*; C16 diacid = O=C(O)CCCCCCCCCCCCCCC(=O)*; γGlu = O=C(O)[C@H](CCC(=O)[*:2])N[*:1]; Iva = CC[C@](C)(N)C(=O)O; PEG3′ = not defined here; Aib = CC(C)(N)C(=O)O

T1: full-length human GLP-1R (GenBank NM_002062) with an N-terminal FLAG tag on HEK-293T cells (human), P43220
T1 chain: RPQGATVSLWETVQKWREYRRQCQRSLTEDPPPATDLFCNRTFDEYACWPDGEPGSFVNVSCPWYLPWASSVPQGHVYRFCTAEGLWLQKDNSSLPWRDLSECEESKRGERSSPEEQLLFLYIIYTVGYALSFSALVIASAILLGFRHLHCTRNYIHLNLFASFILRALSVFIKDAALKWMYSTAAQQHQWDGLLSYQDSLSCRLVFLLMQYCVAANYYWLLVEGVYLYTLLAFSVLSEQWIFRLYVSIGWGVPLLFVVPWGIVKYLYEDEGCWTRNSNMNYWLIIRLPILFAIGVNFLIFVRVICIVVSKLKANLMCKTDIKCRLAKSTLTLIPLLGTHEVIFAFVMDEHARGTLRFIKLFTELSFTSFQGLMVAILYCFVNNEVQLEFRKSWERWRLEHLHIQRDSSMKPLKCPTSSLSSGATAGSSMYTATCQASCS

T2: full-length human GIPR (GenBank NM_000164) with an N-terminal FLAG tag on HEK-293T cells (human), P48546
T2 chain: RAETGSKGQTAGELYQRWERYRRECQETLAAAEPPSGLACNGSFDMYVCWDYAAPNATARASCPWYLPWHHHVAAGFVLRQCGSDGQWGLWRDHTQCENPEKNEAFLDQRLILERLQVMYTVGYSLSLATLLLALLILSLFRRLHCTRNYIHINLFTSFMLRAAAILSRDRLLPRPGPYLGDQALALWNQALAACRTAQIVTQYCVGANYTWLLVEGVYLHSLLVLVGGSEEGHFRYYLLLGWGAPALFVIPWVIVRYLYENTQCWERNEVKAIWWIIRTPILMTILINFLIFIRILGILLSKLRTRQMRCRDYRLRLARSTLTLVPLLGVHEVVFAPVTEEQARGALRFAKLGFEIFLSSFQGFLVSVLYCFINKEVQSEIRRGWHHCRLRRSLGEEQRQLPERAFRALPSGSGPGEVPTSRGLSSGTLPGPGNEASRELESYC


Assays:
[1] = molecular target: T1, full-length human GLP-1R (GenBank …); assay: cell-based or functional assay
[2] = molecular target: T2, full-length human GIPR (GenBank …); assay: cell-based or functional assay

Binder	GLP EC50 [1]	GIP EC50(pM) [2]
Y[Aib]EGTFISDYSIALDR[Aib]HQ[Aib]NFVNW[Iva]LAQRPSSGAPPPK([Gly-Gly-Gly-Gly-Gly-γGlu-C16 diacid]) (ends and bridges not checked) [Compound No. 462]	> 1000 nM	0.35 pM
Y[Aib]EGTFISDYSIALDR[Aib]HQ[Aib]NFVNW[Iva]LAQRPSSGAPPPK([Gly-Gly-Gly-Gly-Gly-γGlu-C18 diacid]) (ends and bridges not checked) [Compound No. 463]	> 1000 nM	0.52 pM
Y[Aib]EGTFISDYSIALDR[Aib]HQ[Aib]NFVNW[Iva]LAQRPSSGAPPPK([Gly-Gly-Gly-Gly-Gly-γGlu-C20 diacid]) (ends and bridges not checked) [Compound No. 464]	977 nM	1.29 pM
Y[Aib]EGTFISDYSIALDR[Aib]HQ[Aib]NFVNW[Iva]LAQRKSSGAPPPS (not fully specified (residue 31); ends and bridges not checked) [Compound No. 468]	> 1000 nM	0.44 pM
Y[Aib]EGTFISDYSIALDR[Aib]HQ[Aib]NFVNW[Iva]LAQRKSSGAPPPS (not fully specified (residue 31); ends and bridges not checked) [Compound No. 469]	> 1000 nM	0.62 pM
Y[Aib]EGTFISDYSIALDR[Aib]HQ[Aib]NFVNW[Iva]LAQRKSSGAPPPS (not fully specified (residue 31); ends and bridges not checked) [Compound No. 470]	> 1000 nM	1.12 pM
Y[Aib]EGTFISDYSIALDR[Aib]HQ[Aib]NFVNW[Iva]LAQRPSSGAPPK([PEG3′-PEG3′-γGlu-C16 diacid])S (ends and bridges not checked) [Compound No. 476]	> 1000 nM	0.74 pM
Y[Aib]EGTFISDYSIALDR[Aib]HQ[Aib]NFVNW[Iva]LAQRPSSGAPPK([PEG3′-PEG3′-γGlu-Ida])S (ends and bridges not checked) [Compound No. 477]	> 1000 nM	0.64 pM
Y[Aib]EGTFISDYSIALDR[Aib]HQ[Aib]NFVNW[Iva]LAQRPSSGAPPK([PEG3′-PEG3′-γGlu-C20 diacid])S (ends and bridges not checked) [Compound No. 478]	> 1000 nM	1.36 pM
Y[Aib]EGTFISDYSIALDR[Aib]HQ[Aib]NFVNW[Iva]LAQRPSSGAPPPK([PEG3′-PEG3′-γGlu-C16 diacid]) (ends and bridges not checked) [Compound No. 479]	> 1000 nM	0.42 pM
Y[Aib]EGTFISDYSIALDR[Aib]HQ[Aib]NFVNW[Iva]LAQRPSSGAPPPK([PEG3′-PEG3′-γGlu-Ida]) (ends and bridges not checked) [Compound No. 480]	> 1000 nM	0.5 pM
Y[Aib]EGTFISDYSIALDR[Aib]HQ[Aib]NFVNW[Iva]LAQRPSSGAPPPK([PEG3′-PEG3′-γGlu-C20 diacid]) (ends and bridges not checked) [Compound No. 481]	> 1000 nM	0.61 pM
Y[Aib]EGTFISDYSIALDR[Aib]HQ[Aib]NFVNW[Iva]LAQRK([PEG3′-PEG3′-γGlu-C16 diacid])SSGAPPPS (ends and bridges not checked) [Compound No. 485]	> 1000 nM	0.28 pM
Y[Aib]EGTFISDYSIALDR[Aib]HQ[Aib]NFVNW[Iva]LAQRK([PEG3′-PEG3′-γGlu-Ida])SSGAPPPS (ends and bridges not checked) [Compound No. 486]	> 1000 nM	0.7 pM
Y[Aib]EGTFISDYSIALDR[Aib]HQ[Aib]NFVNW[Iva]LAQRK([PEG3′-PEG3′-γGlu-C20 diacid])SSGAPPPS (ends and bridges not checked) [Compound No. 487]	> 1000 nM	1.38 pM
Y[Aib]EGTFISDYSIALDR[Aib]HQ[Aib]NFVNW[Iva]LAQRPK([PEG3′-PEG3′-γGlu-C16 diacid])SGAPPPS (ends and bridges not checked) [Compound No. 488]	> 1000 nM	0.75 pM
Y[Aib]EGTFISDYSIALDR[Aib]HQ[Aib]NFVNW[Iva]LAQRPK([PEG3′-PEG3′-γGlu-Ida])SGAPPPS (ends and bridges not checked) [Compound No. 489]	> 1000 nM	0.96 pM
Y[Aib]EGTFISDYSIALDR[Aib]HQ[Aib]NFVNW[Iva]LAQRPK([PEG3′-PEG3′-γGlu-C20 diacid])SGAPPPS (ends and bridges not checked) [Compound No. 490]	> 1000 nM	1.88 pM
Y[Aib]EGTFISDYSIALDR[Aib]HQ[Aib]NFVNW[Iva]LAQRPSK([PEG3′-PEG3′-γGlu-C16 diacid])GAPPPS (ends and bridges not checked) [Compound No. 491]	> 1000 nM	0.7 pM
Y[Aib]EGTFISDYSIALDR[Aib]HQ[Aib]NFVNW[Iva]LAQRPSK([PEG3′-PEG3′-γGlu-Ida])GAPPPS (ends and bridges not checked) [Compound No. 492]	> 1000 nM	1.22 pM
Y[Aib]EGTFISDYSIALDR[Aib]HQ[Aib]NFVNW[Iva]LAQRPSK([PEG3′-PEG3′-γGlu-C20 diacid])GAPPPS (ends and bridges not checked) [Compound No. 493]	> 1000 nM	1.22 pM
Y[Aib]EGTFISDYSIALDR[Aib]HQ[Aib]NFVNW[Iva]LAQRPSSK([PEG3′-PEG3′-γGlu-C16 diacid])APPPS (ends and bridges not checked) [Compound No. 494]	> 1000 nM	0.5 pM
Y[Aib]EGTFISDYSIALDR[Aib]HQ[Aib]NFVNW[Iva]LAQRPSSK([PEG3′-PEG3′-γGlu-Ida])APPPS (ends and bridges not checked) [Compound No. 495]	> 1000 nM	0.86 pM
Y[Aib]EGTFISDYSIALDR[Aib]HQ[Aib]NFVNW[Iva]LAQRPSSK([PEG3′-PEG3′-γGlu-C20 diacid])APPPS (ends and bridges not checked) [Compound No. 496]	> 1000 nM	1.09 pM
Y[Aib]EGTFISDYSIALDR[Aib]HQ[Aib]NFVNW[Iva]LAQRPSSGK([PEG3′-PEG3′-γGlu-C16 diacid])PPPS (ends and bridges not checked) [Compound No. 497]	> 1000 nM	0.4 pM
Y[Aib]EGTFISDYSIALDR[Aib]HQ[Aib]NFVNW[Iva]LAQRPSSGK([PEG3′-PEG3′-γGlu-Ida])PPPS (ends and bridges not checked) [Compound No. 498]	> 1000 nM	0.6 pM
Y[Aib]EGTFISDYSIALDR[Aib]HQ[Aib]NFVNW[Iva]LAQRPSSGK([PEG3′-PEG3′-γGlu-C20 diacid])PPPS (ends and bridges not checked) [Compound No. 499]	> 1000 nM	1.17 pM
